Test results published in patent US20260117274A1, “ORTHOGONALLY CROSSLINKED PROTEINS, METHODS OF MAKING, AND USES THEREOF” (The Research Foundation for The State University of New York, priority 2022, published 2026).

Assays:
HeLa cells = assay: Flow cytometry uptake of AF488-labeled NSa1(+10) proteins in HeLa cells; assay type: cell-based; conditions: for percentage of fluorescent cells / MFI(R-1) Trial 1 / MFI(R-1) Trial 2 / MFI(R-1) Trial 3: 4 hours; for MFI(R-1) Trial 1 / MFI(R-1) Trial 2 / MFI(R-1) Trial 3: Protein 500 nM, 37°C
Protocol: (§1) To assess cellular uptake of the supercharged NSa1 proteins, we first removed the N-terminal His-tag after TEV cleavage to obtain two intact NSa1(+10) mutants encoding either BocK or CATK-1. We then reacted the mutants with Alexa Fluor 488-NHS modest labeling yield of 20-23% (FIG. 22). We then carried out a flow cytometry assay to quantify the uptake efficiency of the NSa1(+10) mutants. In brief, HeLa cells were treated with 100 or 500 nM of NSa1(+10) proteins at 37° C. for 4 hours. After washing cells three times with PBS containing 20 U/mL heparin to remove the surface-bound proteins, cells were collected and analyzed by flow cytometry. We observed significant monobody uptake when protein concentrations reached 500 nM. […] Since the kinetically stable protein folds show enhanced proteolytic resistance due to their rigid conformations with limited local openings, we assessed the effect of orthogonal crosslinking on proteolytic stability of the monobody. Thus, we incubated the CATK-1-crosslinked NSa1(+10) with cathepsin B ¾ an enzyme responsible for the degradation of protein cargoes in the endosomes ¾ and monitored monobody stability by mass spectrometry.
Fluorescent labeling of NSa1 and flow cytometry. After TEV-cleavage and further cation exchange chromatography, the purified NSa1 proteins were buffer exchanged into the basic buffer (100 mM Pi, 450 mM NaCl, pH 8.3), and then incubated with AF488-NHS (Lumiprobe) (2-fold molar, optimized to afford non-labeled and mono-labeled protein as major species) at 4° C. with gentle shaking in darkness overnight. Then, thorough dialysis was employed to remove excess dye and protein concentrations were determined by Nanodrop (eNSa1=28880 M^−1 cm^−1, eNSa1-plus10=27390 M^−1 cm^−1; CF280=0.11; Aprotein=A280−A493*CF280).
HeLa cells were seeded in a 48-well plate and grown in DMEM supplemented with 10% FBS and 10 μg/mL Gentamycin (Gibco) and 2 μg/mL Plasmocin at 37° C., 5% CO2 until ˜80% confluency. Cells were washed twice with pre-warmed PBS before switching to serum-free DMEM with Alexa-488 labeled protein. Cells were incubated at 37° C. for 4 hours. The cells were washed three times with PBS (including 20 U/mL heparin), trypsinized, and collected with 1.5 mL tubes. After brief centrifugation (400 g, 5 min) at room temperature, cells were collected and resuspended in PBS for flow cytometry analysis.

Cathepsin B = target: T1, Cathepsin B (Homo sapiens, UniProt P07858); assay: NSa1 proteolytical stability assay (QTOF-LC/MS); assay type: in vitro ADME
T1 construct: purchased Novus Biologicals
Protocol: as §1
NSa1 proteolytical stability assay. In a 1.5-mL microcentrifuge tube, TEV-cleaved, purified NSa1 (1.5 μM in 50 mM phosphate, 500 mM NaCl, pH 7.0) was incubated with Cathepsin B (Novus Biologicals; 0.065 μM) at 37° C. […]

[1] = Intramolecular (inter-strand) crosslinking yield of nanobody/monobodies by mass spectrometry; conditions: UAA-encoded monobodies, MS characterization (Table 5)
Description: To probe whether CATK-1 is suitable for inter-strand cross-linking in proteins containing the disulfide bond, we selected a small protein called nanobody NB1, a prototypical single-chain VHH antibody that binds specifically to GFP protein. Based on NB1 structure, there is one disulfide bond formed between Cys-24 and Cys-98, close to a proposed orthogonal crosslinking site at Val-4 and Tyr-106 (FIG. 5a, left). To test orthogonal crosslinking, we placed CATK-1 at Val-4 position to target Tyr-106 located 5.6 Å away on the opposing strand. The BocK- and CATK-1-encoded NB1 were successfully expressed at yields of 14.3 mg L^−1 and 3.5 mg L^−1, respectively (FIG. 5b, left). […] Separately, we also examined the utility of CATK-1 in effecting intramolecular crosslinking in an antibody mimic called monobody. Due to their lack of cysteine residues, small size (˜10 kDa), and evolvable binding affinity and specificity, monobodies represent an ideal protein scaffold for targeting protein-protein interactions in the cytosols of mammalian cells. However, monobodies are cell impermeable, severely limiting their potential. One strategy to potentially overcome this limitation is to combine protein surface supercharging with orthogonal crosslinking to increase stability in the endosomes and thus improve cytosolic delivery. To this end, we designed an overall +10 charged monobody NSa1, termed NSa1(+10), using the Supercharge protocol on ROSIE Rosetta Online Server and added an amber codon at Ala-13 position. Based on the NSa1 structure, A13CATK-1 is well-positioned to react with the proximal Tyr-92 on the opposing strand at C-terminus (FIG. 5a, right). Accordingly, the wild-type and NSa1(+10) mutant proteins encoding CATK-1 or BocK were expressed and purified in good yields (4.1-6.9 mg L^1; FIG. 5b, right). […] The crosslink-containing fragment was identified by LC/MS after trypsin digestion (FIG. 21).
To assess if BeLaK is suitable for orthogonal crosslinking of domain antibodies, we selected NSa1, a monobody-based SHP2 inhibitor, and placed BeLaK at position-13 of the N-terminal β-strand. A panel of supercharged NSa1 mutants carrying overall charges of +6, +8, +11, and +18, respectively, were designed using Supercharge protocol on ROSIE Rosetta Online Server with native NSa1 (˜2 charge) as a template. […] Thus, the supercharged monobodies encoding either BeLaK or BocK were expressed in good yields (2.2˜7.2 mg L^−1; FIG. 42). […] Furthermore, as the positive charge increases, the mobility decreases, likely due to reduced overall negative charge after association with the SDS molecules. MS analysis further confirmed the identities of the supercharged NSa1 mutants (FIG. 34c). Since the unreacted BeLaK-encoded monobodies share the same mass as the crosslinked ones, we treated the purified monobodies with excess β-mercapto-ethanol for 7 days, which accelerates the hydrolysis of the unreacted β-lactam and in turn adds +18 Da to protein mass, and monitored the intact mass change. Using this method, we determined orthogonal crosslinking yields to range from 5% for native NSa1 to more than 50% for +8/+11/+18 mutants (FIG. 42). We attribute the higher yields to the increased conformational dynamics, which promotes proximity-driven crosslinking reactions. The crosslinking sites in +11 and +18 mutants were mapped to Lys-21 and Lys-19, respectively, residues on the nearby β-strand, based on the identified fragment masses after trypsin digestion (FIG. 34d, FIG. 50).
Crosslinking yield determination of BeLaK-encoded NSa1 variants. To quantify the extent of crosslinking, β-mercaptoethanol (20 mM) was added at a final concentration of 2.58 mM (100 equiv, 3 μL) to a solution of purified NSa1 variants (25 μM, 30 μL) in elution buffer (50 mM Na2HPO4, pH=7.4, 300 mM NaCl, 250 mM imidazole). The mixture was incubated at 37° C. overnight. Afterwards, the mixture was removed from the incubator and allowed to incubate at 25° C. for 1 week.

| Molecule | percentage of fluorescent cells (HeLa cells; 500 nM) [%] | MFI(R-1) Trial 1 (HeLa cells) | MFI(R-1) Trial 2 (HeLa cells) | MFI(R-1) Trial 3 (HeLa cells) | higher mean fluorescence intensity than NSa1(+10)-A13BocK treated cells (HeLa cells; 500 nM) [%] | half-life relative to non-crosslinked NSa1(+10)-A13BocK (Cathepsin B; Cathepsin B, 37°C) | half-life (Cathepsin B; NSa1 1.5 μM with Cathepsin B 0.065 μM at 37°C) [min] | X-linking yield [1] [%] |
| --- | --- | --- | --- | --- | --- | --- | --- | --- |
| NSa1(+10)-A13BocK: non-crosslinked +10 charged monobody NSa1 encoding BocK at position 13; SEQ ID NO: 50 (protein, BocK non-natural residue at position 13; VARIANT 34 X is 1/2-carboxy-4-aryltriazole lysine or Ne-(tert-butoxycarbonyl) lysine) MGSSHHHHHHSSGTENLYFQGVSSKPTKLRVVRXTPTSLKIKWDAPAKTVDYYVITYGETGRGGYAWQRFEVPGSKRTATIKGLKPGVDYTITVYAGYKGYPTYYSSPISINYRT | 13.6 | 6726.24 | 6507.23 | 6855.84 |  |  |  |  |
| NSa1(+10)-A13CATK-1: +10 charged monobody NSa1 encoding CATK-1 at Ala-13, crosslinked to Tyr-92; SEQ ID NO: 50 (protein, CATK-1 at Ala13 crosslinked to Tyr92; VARIANT 34 X is 1/2-carboxy-4-aryltriazole lysine or Ne-(tert-butoxycarbonyl) lysine) MGSSHHHHHHSSGTENLYFQGVSSKPTKLRVVRXTPTSLKIKWDAPAKTVDYYVITYGETGRGGYAWQRFEVPGSKRTATIKGLKPGVDYTITVYAGYKGYPTYYSSPISINYRT | 14.8 | 9561.61 | 9020.17 | 9337.41 | 40 | three times longer | 126 |  |
| NSa1(+5)-A13BeLaK: supercharged NSa1 monobody encoding BeLaK; SEQ. ID. NO: 6 (protein, BeLaK non-natural residue at position 13; MOD_RES 34 X is N6-(2-Oxoazetidine-1-carbonyl)-L-lysine, supercharged NSa1 monobody encoding BeLaK; ID; NO: 6) MGSSHHHHHHSSGTENLYFQGVSSKPTKLRVVRXTPTSLKISWDAPAVTVDYYVITYGEKGSGGYAWQEFEVPGSKRTATISGLKPGVDYTITVYAGYKGYPTYYSSPISINYRT |  |  |  |  |  |  |  | 43 |
